What follows are sequences tested on Escherichia coli TOP10 (assay: shrunken log2 fold change of peptide-encoding DNA abundance (4.5 h post-induction vs induction); higher = less antimicrobial activity (less host growth inhibition)). Settings: time post-induction: 4.5 h; library: site-saturation at positions 5, 18, 19, 20.
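Note: peptides expressed intracellularly from a pBAD plasmid library in pooled LB shake-flask culture, induced with 0.3% L-arabinose, DNA abundance read by NGS, three biological replicates, DESeq2 with apeglm shrinkage.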

| Sequence | shrunken log2 fold change |
| --- | --- |
| RRIRRRPPRLPRPRPRPVPMPRP | 0.452 |
| RRIRDRPPRLPRPRPRPKEVPRP | 0.174 |
| RRIRKRPPRLPRPRPRPVIGPRP | 0.233 |
| RRIRSRPPRLPRPRPRPNDGPRP | -0.0933 |
| RRIRGRPPRLPRPRPRPQQFPRP | 0.239 |
| RRIRTRPPRLPRPRPRPLNAPRP | -0.264 |
| RRIRFRPPRLPRPRPRPIAMPRP | 0.091 |
| RRIRARPPRLPRPRPRPQNAPRP | 0.243 |
| RRIRMRPPRLPRPRPRPHSGPRP | 0.00795 |
| RRIRRRPPRLPRPRPRPMGTPRP | 0.241 |
| RRIRWRPPRLPRPRPRPITQPRP | -0.0367 |
| RRIRLRPPRLPRPRPRPEYWPRP | -0.0516 |
| RRIRHRPPRLPRPRPRPSCTPRP | -0.263 |
| RRIRHRPPRLPRPRPRPAHRPRP | 0.162 |
| RRIRTRPPRLPRPRPRPDFIPRP | -0.547 |
| RRIRDRPPRLPRPRPRPLMIPRP | 0.072 |
| RRIRRRPPRLPRPRPRPPQNPRP | 1.4 |
| RRIRLRPPRLPRPRPRPNYYPRP | -0.773 |
| RRIRRRPPRLPRPRPRPDREPRP | 0.0377 |
| RRIRVRPPRLPRPRPRPIHHPRP | -0.723 |
| RRIRVRPPRLPRPRPRPCEVPRP | -0.0542 |
| RRIRIRPPRLPRPRPRPCCHPRP | -0.486 |

| Sequence | shrunken log2 fold change |
| --- | --- |
| RRIRHRPPRLPRPRPRPIYTPRP | -1.35 |
| RRIRKRPPRLPRPRPRPYHHPRP | -0.247 |
| RRIRYRPPRLPRPRPRPGQLPRP | -0.284 |
| RRIRHRPPRLPRPRPRPYEYPRP | -0.4 |
| RRIRARPPRLPRPRPRPNNYPRP | -0.356 |
| RRIRKRPPRLPRPRPRPNVWPRP | 0.258 |
| RRIRARPPRLPRPRPRPTMYPRP | -0.154 |
| RRIRMRPPRLPRPRPRPSYDPRP | 0.26 |
| RRIRNRPPRLPRPRPRPFPIPRP | -0.132 |
| RRIRARPPRLPRPRPRPCRFPRP | 0.0212 |
| RRIRDRPPRLPRPRPRPIVEPRP | 0.0518 |
| RRIRVRPPRLPRPRPRPYNIPRP | -1.26 |
| RRIRPRPPRLPRPRPRPDHNPRP | -0.675 |
| RRIRYRPPRLPRPRPRPRYQPRP | -0.0935 |
| RRIRCRPPRLPRPRPRPCYMPRP | -0.234 |
| RRIRDRPPRLPRPRPRPYPHPRP | 1.85 |
| RRIRPRPPRLPRPRPRPKYRPRP | 2.73 |
| RRIRERPPRLPRPRPRPEDAPRP | -0.079 |
| RRIRGRPPRLPRPRPRPHPLPRP | 0.101 |
| RRIRFRPPRLPRPRPRPIEMPRP | -0.245 |
| RRIRVRPPRLPRPRPRPQEPPRP | 0.0426 |
| RRIRVRPPRLPRPRPRPNLNPRP | -0.342 |

| Sequence | shrunken log2 fold change |
| --- | --- |
| RRIRLRPPRLPRPRPRPRAQPRP | 0.423 |
| RRIRLRPPRLPRPRPRPTMPPRP | -0.0783 |
| RRIRCRPPRLPRPRPRPWYHPRP | -0.392 |
| RRIRKRPPRLPRPRPRPVKFPRP | 0.048 |
| RRIRDRPPRLPRPRPRPDAVPRP | 0.585 |
| RRIRARPPRLPRPRPRPYCCPRP | -0.181 |
| RRIRWRPPRLPRPRPRPMHQPRP | 0.067 |
| RRIRKRPPRLPRPRPRPSVWPRP | 0.645 |
| RRIRSRPPRLPRPRPRPPQRPRP | 0.451 |
| RRIRFRPPRLPRPRPRPQIVPRP | 0.0871 |
| RRIRCRPPRLPRPRPRPTYFPRP | -0.0696 |
| RRIRFRPPRLPRPRPRPEGHPRP | 0.0933 |
| RRIRSRPPRLPRPRPRPSIDPRP | -0.536 |
| RRIRNRPPRLPRPRPRPHGVPRP | 0.0154 |
| RRIRERPPRLPRPRPRPHKHPRP | -0.671 |
| RRIRVRPPRLPRPRPRPIDTPRP | -0.48 |
| RRIRARPPRLPRPRPRPVSNPRP | 0.296 |
| RRIRYRPPRLPRPRPRPTGRPRP | 0.0692 |
| RRIRARPPRLPRPRPRPADCPRP | 0.203 |
| RRIRTRPPRLPRPRPRPYNIPRP | -0.131 |
| RRIRVRPPRLPRPRPRPQCMPRP | -0.528 |
| RRIRNRPPRLPRPRPRPKVCPRP | -0.0345 |

| Sequence | shrunken log2 fold change |
| --- | --- |
| RRIRHRPPRLPRPRPRPYYWPRP | -0.0132 |
| RRIRDRPPRLPRPRPRPVRWPRP | 1.2 |
| RRIRCRPPRLPRPRPRPGMNPRP | -0.131 |
| RRIRWRPPRLPRPRPRPVLDPRP | 0.0956 |
| RRIRIRPPRLPRPRPRPLRPPRP | 0.583 |
| RRIRNRPPRLPRPRPRPNNDPRP | -0.934 |
| RRIRSRPPRLPRPRPRPMHEPRP | -0.271 |
| RRIRNRPPRLPRPRPRPHQNPRP | -0.239 |
| RRIRTRPPRLPRPRPRPSPLPRP | -0.335 |
| RRIRKRPPRLPRPRPRPTAYPRP | 0.185 |
| RRIRWRPPRLPRPRPRPFQGPRP | -0.249 |
| RRIRLRPPRLPRPRPRPAHGPRP | -0.0453 |
| RRIRQRPPRLPRPRPRPKMDPRP | -0.111 |
| RRIRLRPPRLPRPRPRPYQWPRP | -0.241 |
| RRIRVRPPRLPRPRPRPAYSPRP | -0.167 |
| RRIRKRPPRLPRPRPRPGEEPRP | 0.108 |
| RRIRMRPPRLPRPRPRPNHGPRP | -0.00135 |
| RRIRERPPRLPRPRPRPYAIPRP | -0.52 |
| RRIRNRPPRLPRPRPRPNLNPRP | -0.557 |
| RRIRDRPPRLPRPRPRPWDCPRP | -0.103 |
| RRIRCRPPRLPRPRPRPLANPRP | 0.452 |
| RRIRYRPPRLPRPRPRPTTSPRP | -0.382 |

| Sequence | shrunken log2 fold change |
| --- | --- |
| RRIRGRPPRLPRPRPRPSSDPRP | 0.439 |
| RRIRRRPPRLPRPRPRPFEDPRP | -0.0157 |
| RRIRARPPRLPRPRPRPTGHPRP | -0.132 |
| RRIRFRPPRLPRPRPRPMQNPRP | 0.027 |
| RRIRARPPRLPRPRPRPVQFPRP | -0.0854 |
| RRIRQRPPRLPRPRPRPANQPRP | -0.091 |
| RRIRYRPPRLPRPRPRPVVKPRP | -0.0513 |
| RRIRRRPPRLPRPRPRPRLFPRP | 0.593 |
| RRIRFRPPRLPRPRPRPCTAPRP | -0.487 |
| RRIRGRPPRLPRPRPRPVQCPRP | 0.102 |
| RRIRVRPPRLPRPRPRPEPHPRP | -0.0157 |
| RRIRPRPPRLPRPRPRPDSRPRP | 0.0317 |
| RRIRHRPPRLPRPRPRPTERPRP | 0.18 |
| RRIRLRPPRLPRPRPRPVATPRP | 0.282 |
| RRIRTRPPRLPRPRPRPYNHPRP | -0.138 |
| RRIRSRPPRLPRPRPRPIHAPRP | -0.0213 |
| RRIRKRPPRLPRPRPRPQQKPRP | 0.206 |
| RRIRPRPPRLPRPRPRPQDHPRP | -0.12 |
| RRIRDRPPRLPRPRPRPVDPPRP | 0.0517 |
| RRIRNRPPRLPRPRPRPEKQPRP | 0.0721 |
| RRIRQRPPRLPRPRPRPSNVPRP | -0.0428 |
